Source: the nanobody polyreactivity screen of Harvey et al. (2022)

Assay: yeast display, Sf9 membrane polyspecificity reagent, FACS + sequencing; frameworks hold sequencing errors
Method in brief: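 Using colony PCR, genes from sorted yeast display clones were amplified, then sequenced on MiSeq at 2 × 250 and filtered by CDR length. The clones had been stained with 10% biotinylated, detergent-solubilized Sf9 membrane reagent for 1 hour at 4 °C and sorted by FACS into low and high (top ~1%) gates on anti-HA and streptavidin fluorescence. Polyreactivity labels come from the gate of origin.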

QVQLVESGGGLVQAGGSLRLSCAASGSIITWYTMGWYRQAPGKERELVAAISWSGGRTYYADSVKGRFTISRDNAKNTVYLQMNSLKPEDTAVYYCAASAYGRPPFDYWGQGTQVTVSS
polyreactivity (PSR sort gate): high polyreactivity

QVQLQDSGGGLVQAGGSLRLSCAASGTISYRYRMGWYRQAPRKELELVAGIRFGSITYYADSVKGRFTISRDNAKNTVYLQMNSLKPEDIAVYYCAVYQKSYRFFPYWGQGTQVTVSS
polyreactivity (PSR sort gate): high polyreactivity

QVQLEESGGGLDQAGGSLRLSCAASGIIFGYYAMGWYIQAPGKQSEFVAAINYSGVSTYYADSVKGRFTISLDNAKNTVYLEMHSLKPEDTAVYYCAAGPYAGVDPGYYYYWGKGTQVTVSS
polyreactivity (PSR sort gate): low polyreactivity

QVQLLESGGGLVQAVGSLRLSCAASGIIFWVNAMGWYRQAPGKERELFAAIRSDGSTKYADSVKGRFTISRDNAKNTVYLLMNSLKPEDTAHYYCAKRDYSYTWLRDYYYWGQGTQVTVSS
polyreactivity (PSR sort gate): low polyreactivity

QVQLVESGGGLVQAGGSLRLSCAASGRIFDGYAMGWYRQAPGTERELVAAITDSGGSTYYADSVKGRFTISRDNAKNTVYLQMNSLKPEDTAVYYCAAEEIDYTDVTSGYEYWGQGTQVTVSS
polyreactivity (PSR sort gate): high polyreactivity

QVQLVESGGGLVQAGGSLRLSCAASGRTFERYAMGWYRQAPGKERELVATITRRGGSTYYADSVKGRFTISRDNAKNTVYLQMNSLKPEDTAVYYCNADNQAYRIYARGYWGQGTQVTVSS
polyreactivity (PSR sort gate): high polyreactivity

QVQLVESGGGLVQAGGSLRLSCAASGFTFGLYAMGWYRQAPGKERELVAAITSGGRTYYADSVKGRFTISRDNAKNTVYFQMNSLNPEDSAVYYCNADFFNAYLWYPGYESGFDYWGQCTQVTVSS
polyreactivity (PSR sort gate): low polyreactivity

QVQLVESGGGLVQAGGSLRLSCAASGSTFGYYAMGWYRQAPGKERELVARISGGTRTNYADSVKGRFTISRDNAKNTVYLQMNSLKPEDTAVYYCNAYYYIPFEGRGYSKMDYWGQGTQVTVSS
polyreactivity (PSR sort gate): high polyreactivity

QVQLVESGGGLVQAGGSLRLSCAASGIIFRGNVMGWSRQAPGKERELVAAISGSGGRTYYADSVKGRFTISRDNAKNTVYLQMNSLKPEDTAVYYCNADKAIRYDYWGQGTQVTVSS
polyreactivity (PSR sort gate): high polyreactivity

QVQLVESGGGLVQAGGSLRLSCAASGSIFAINAMGLYRQAPGKERELVARISWSGGRTYYADSVKGRFTISRDNAKNSVYLQMNSLKPEVTAVYYCAARYYWGQVTQVTVSS
polyreactivity (PSR sort gate): high polyreactivity

QVQLVESGGGLFQAGGSLRLSCAASGFTFIYYAMGSYRQAPGKATELVSAITHSGGSTYYADSVKGRFTISRDNAKTTVSLQMNSLNPEDTAVYYCAARLTWSRYQKYRTSSWQSYYWGQGTQVTVSS
polyreactivity (PSR sort gate): high polyreactivity

QVQLVESGGGLVQAGGSLRLSCAASGSTFKPYAMGWYRQAPGKERELVAAISRGTRTYADSVKGRFTITRDNAKNTVYLQMNSLKPEDTAVYYCAAEWRWIFGYHYEYDYWGQGTQVTVSS
polyreactivity (PSR sort gate): low polyreactivity

QVQHVESGGGLVQAGGRLRLRCAASGSTFDDNAKGWYIHAPGKERELVAGISDGDDSTNYADSVKGRFTISRDNAKNTVYFQMNRLKPEDTAVYYCNARYVRTYGVRFGYDYWGQGTQLTVSS
polyreactivity (PSR sort gate): low polyreactivity

QVQLVESGGGLVQAGGSLRLSCAASGSIFYYNAMGWYRQAPGKESELVAASSRRVGNTYYADSVKGRFTISRDNAKNTVYLQMNSLKPEDTAVYYCNTDRSSRPSYDYWGQGTQVTVSS
polyreactivity (PSR sort gate): high polyreactivity

QVQRVESGGGLVQAGGSLRLSCAASGSIFAVYAMGWYRQAPGNERELVAAINRSGDSTYFADSVKGRFTISRDNAKNTVYLQMKSLKPEDTAVYYCAADWYWWYTRSWVDYWGQGTQVTVSS
polyreactivity (PSR sort gate): high polyreactivity

QVQLVESRGGIVQAGGSLRLISAASGRTFGWNAKGWYRQERGKERELVAAISLRGTSTYYADSVKGRFTISRDNAKNTVYLQMNSLKPEDTAVYYCNTLVYVPYHEDYWGQGTQVTVSS
polyreactivity (PSR sort gate): high polyreactivity

QVQLVESGGGLVQAGGSLRLSCAASGSTFRWNAMGWYTPAPGKERELVAAITSSGSTYYADSVKGRFTISRDNAKNTVYLQMNSLNPEDTAVYSCAGRANGYWNTYELDYWGQGIQVTVSS
polyreactivity (PSR sort gate): low polyreactivity

QVQLVESGGGLVQAGGSLRLSCAASGLIFYIYMGWYRQAPGKERELVAVISSSGNSTYYADSVKGRFTISRDNEKNTVYLQMNSLKPEDTAVYYCNASAYYPPSSSRYDYWGQGTQVTVSS
polyreactivity (PSR sort gate): low polyreactivity

QVQLVESGGGLVQAGGILRLSCAASGSIFRNYAMGWYRQAPGKERELVAAISVRGGSTYYADSVKGRFTISRDNTKNTVYLQMNSLKPEDTAVYYCNARTYYPVYYRDGGYWGQGTQVTVSS
polyreactivity (PSR sort gate): high polyreactivity

QVQLVESGGGLVQAGGSLRLSCAASGRIFGYYTMGWYRQAPGKERELVATIDWSGDSTYYADSVKARFTISRDNAKNTVYLQMNSLKPEDTAVYYCAARDHAFRYYRNPYKGKYDYWGQGTQVPVSS
polyreactivity (PSR sort gate): low polyreactivity

QVQLVESGGGLVQAGGSLRLSCAASGFTFYWYAMGWYRQAPGKERQLVAAISKTGGSTYYADSVKGRFTISRDNAQKTVYLQMTSLKPEDTAVYYCNADKVATWRTHHDYWGQGTQVTVSS
polyreactivity (PSR sort gate): low polyreactivity

QVELQVSGGGLVRAGGSLRLSCAASGNIFDADIMGWYRQAPGKERELVASITGGGSTSYAESAKGRFTISRDNAKNAVYLQMNSLKPEDTAVYYCNAYFIYEGGWYYKAQYDYWGQGTQVTVSS
polyreactivity (PSR sort gate): low polyreactivity

QVQLVESGGGLVQAGGSLRLSCAASGYIFPYYTMGWYRQAPGKERELVAAITIGGSTYYADSVKGRFTISRDNAKNTVYFQMNSLKPVDTAVYYCAARSRYYDTRFDYWGQGTQVTVSS
polyreactivity (PSR sort gate): low polyreactivity

QVQLEESGGGLVKEGGSLRLSCAASGSIFPINAMGWYRQAPGKERELVAAINGSGSTKYADSVKGRFTISRDNAKNTVYLQMNSLKPEDTAVYYCSTRGLRWAKYGYWGQVTQVTVSS
polyreactivity (PSR sort gate): high polyreactivity

QVQLVESGGGLVQAGGSLRLSCAASGSTLYRNAMGWYRQAPGKERELVAAISSSGGTTFYADSVKGRFTISGDNAKNTVYLQMNCLKPEDSAVYYCIRTARKLRTVHSSVVGLDYWGQGTQVTVSS
polyreactivity (PSR sort gate): low polyreactivity

QVQLVESGGGLVQAGGSLRLSCAASGSIFRYNTMGRYRQAPGKERELVATITRRGGSTYYADSVKGRFTISRDNAKNTVYLQMNSLKPEDTAVYYCNADNFGGPYNYWGQGTQVTVSS
polyreactivity (PSR sort gate): low polyreactivity

QVQLVESGGGLVQAGGSLRLSCADSGSIFDGNAMGWYRQAPGKERALVAAISRRGGSTYYADSVKGRFTISRDKAKNTVYLQMNSLKPEDTAVYYCNAYLSYFDGNYWGQGTQVTVSS
polyreactivity (PSR sort gate): high polyreactivity

QVQLVESGGGLVQAGGSLRLSCAASGRIFVFNAMGWYRQAPGKERELVASISSSGGSTYYADSVKGRFTISRDNAKNTVYLQINSLKPEDTAVYYCARRSYHSRYNYWGQGTQVTVSS
polyreactivity (PSR sort gate): high polyreactivity

QVQLVESGGGLVQAGGSLRLSCAASGSTFWYYAMGWYRQAPGKERQLVAAISRNGVSTYYADSVKGRFTISRDIAKNTVYLQMNSMKPEDTAVYYCNVVTKFTGRGYDYWGQGTQVTVSS
polyreactivity (PSR sort gate): high polyreactivity

QVQLVESGGGRDQAGGSLRLSCAASGSTFNGYAMGWYRQAPGKERELVAAISSRGGSTNYADSVKGRFTISRDNAKKTVYLQMNSLKPEDTAVYYCNAVYRRSRSVGSCFDDWGQVTQVTVSS
polyreactivity (PSR sort gate): high polyreactivity

QVQLVESGGALDQAGGSLRLTCAASGFIFGVNAKGWYRKAPGKERELVAAITARSGSTYYADSVKGRFTISRDNAKNTVYLQMNSLKPEDTAVYYWATPVYRSTYEYDYWGQGTQVTVSS
polyreactivity (PSR sort gate): low polyreactivity
